US20150322128A1 (Sanofi, published 2015)
Read-outs that look alike come from different tables or passages of the source. Numbered stars: 1 amine (or outer) side, 2 acyl side, 3 side chain; on linkers, the order of the positions; unused ones are H or OH. Square brackets hold non-standard residues; d marks the D form. Side chains are listed from the residue outwards. Ends that are not written are not given here. * marks the point of attachment. γGlu = O=C(O)[C@H](CCC(=O)[*:2])N[*:1]; Stearoyl = CCCCCCCCCCCCCCCCCC(=O)*; Palmitoyl = CCCCCCCCCCCCCCCC(=O)*; Aib = CC(C)(N)C(=O)O

T1: human GIP receptor (human, UniProt P48546 22-466)
T1 sequence (looked up): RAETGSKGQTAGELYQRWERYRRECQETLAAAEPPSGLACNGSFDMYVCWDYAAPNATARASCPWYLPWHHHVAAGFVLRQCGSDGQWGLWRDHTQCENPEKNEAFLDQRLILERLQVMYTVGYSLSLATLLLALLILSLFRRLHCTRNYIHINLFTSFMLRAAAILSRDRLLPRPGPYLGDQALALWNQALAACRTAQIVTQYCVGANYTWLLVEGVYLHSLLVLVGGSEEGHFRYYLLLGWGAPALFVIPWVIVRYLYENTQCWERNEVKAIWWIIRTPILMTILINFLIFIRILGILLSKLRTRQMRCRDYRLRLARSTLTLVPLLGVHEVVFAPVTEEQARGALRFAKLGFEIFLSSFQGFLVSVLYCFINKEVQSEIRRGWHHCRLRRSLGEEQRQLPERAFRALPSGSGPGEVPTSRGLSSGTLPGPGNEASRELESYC

B1: SEQ ID NO: 27 (peptide)
peptide: H[dS]HGTFTSDLSKQK([γGlu-γGlu-Palmitoyl])EEEAARLFIEWL[Aib]K[dA]GPSSGAPPPS-NH2
modifications: N-terminus assumed
SMILES: CCCCCCCCCCCCCCCC(=O)N[C@@H](CCC(=O)N[C@@H](CCC(=O)NCCCC[C@H](NC(=O)[C@H](CCC(N)=O)NC(=O)[C@H](CCCCN)NC(=O)[C@H](CO)NC(=O)[C@H](CC(C)C)NC(=O)[C@H](CC(=O)O)NC(=O)[C@H](CO)NC(=O)[C@@H](NC(=O)[C@H](Cc1ccccc1)NC(=O)[C@@H](NC(=O)CNC(=O)[C@H](Cc1c[nH]cn1)NC(=O)[C@@H](CO)NC(=O)[C@@H](N)Cc1c[nH]cn1)[C@@H](C)O)[C@@H](C)O)C(=O)N[C@@H](CCC(=O)O)C(=O)N[C@@H](CCC(=O)O)C(=O)N[C@@H](CCC(=O)O)C(=O)N[C@@H](C)C(=O)N[C@@H](C)C(=O)N[C@@H](CCCNC(=N)N)C(=O)N[C@@H](CC(C)C)C(=O)N[C@@H](Cc1ccccc1)C(=O)N[C@H](C(=O)N[C@@H](CCC(=O)O)C(=O)N[C@@H](Cc1c[nH]c2ccccc12)C(=O)N[C@@H](CC(C)C)C(=O)NC(C)(C)C(=O)N[C@@H](CCCCN)C(=O)N[C@H](C)C(=O)NCC(=O)N1CCC[C@H]1C(=O)N[C@@H](CO)C(=O)N[C@@H](CO)C(=O)NCC(=O)N[C@@H](C)C(=O)N1CCC[C@H]1C(=O)N1CCC[C@H]1C(=O)N1CCC[C@H]1C(=O)N[C@@H](CO)C(N)=O)[C@@H](C)CC)C(=O)O)C(=O)O
B2: SEQ ID NO: 12 (peptide)
peptide: HXQGTFTSDLSKQKDEEAARLFIEWLXAXGPSSGAPPPS
modifications: D-Ser at 2; Lys 14 side chain K(γE-γE-x53) = (S)-4-Carboxy-4-((S)-4-carboxy-4-hexadecanoylamino-butyrylamino)-butyryl-; Aib at 27; D-Ala at 29; C-terminal amide
B3: SEQ ID NO: 25 (peptide)
peptide: HXQGTFTSDLSKQKDEEAARLFIEWLXKXGPSSGAPPPS
modifications: D-Ser at 2; Lys 14 side chain K(γE-x70) = (S)-4-Carboxy-4-octadecanoylamino-butyryl-; Aib at 27; D-Ala at 29; C-terminal amide
B4: SEQ ID NO: 22 (peptide)
peptide: HXQGTFTSDLSKQKDEEAARLFIEWLXAGGPSSGAPPPS
modifications: D-Ser at 2; Lys 14 side chain K(AEEAc-AEEAc-AEEAc-x70) = [2-(2-{2-[2-(2-{2-[2-(2-Octadecanoylamino-ethoxy)-ethoxy]-acetylamino}-ethoxy)-ethoxy]-acetylamino}-ethoxy)-ethoxy]-acetyl-; Aib at 27; C-terminal amide
B5: SEQ ID NO: 29 (peptide)
peptide: HXHGTFTSDLSKQKDEEAARLFIEWLKAGGPSSGAPPPS
modifications: D-Ser at 2; Lys 14 side chain K(γE-γE-x53) = (S)-4-Carboxy-4-((S)-4-carboxy-4-hexadecanoylamino-butyrylamino)-butyryl-; C-terminal amide
B6: SEQ ID NO: 24 (peptide)
peptide: HXQGTFTSDLSKQKDEEAARLFIEWLXKXGPSSGAPPPS
modifications: D-Ser at 2; Lys 14 side chain K(γE-γE-x53) = (S)-4-Carboxy-4-((S)-4-carboxy-4-hexadecanoylamino-butyrylamino)-butyryl-; Aib at 27; D-Ala at 29; C-terminal amide
B7: SEQ ID NO: 20 (peptide)
peptide: HXQGTFTSDLSKQKDEEAARLFIEWLXAGGPSSGAPPPS
modifications: D-Ser at 2; Lys 14 side chain K(AEEAc-AEEAc- E-x53) = (2-{2-[2-(2-{2-[(4S)-4-Carboxy-4-hexadecanoylamino-butyrylamino]-ethoxy}-ethoxy)-acetylamino]-ethoxy}-ethoxy)-acetyl; Aib at 27; C-terminal amide
B8: SEQ ID NO: 21 (peptide)
peptide: HXQGTFTSDLSKQKDEEAARLFIEWLXAGGPSSGAPPPS
modifications: D-Ser at 2; Lys 14 side chain K(AEEAc-AEEAc- E-x70) = (2-{2-[2-(2-{2-[(4S)-4-Carboxy-4-octadecanoylamino-butyrylamino]-ethoxy}-ethoxy)-acetylamino]-ethoxy}-ethoxy)-acetyl; Aib at 27; C-terminal amide
B9: SEQ ID NO: 18 (peptide)
peptide: HXQGTFTSDLSKQKDEEAARLFIEWLXSTGPSSGAPPPS
modifications: D-Ser at 2; Lys 14 side chain K(γE-γE-x53) = (S)-4-Carboxy-4-((S)-4-carboxy-4-hexadecanoylamino-butyrylamino)-butyryl-; Aib at 27; C-terminal amide
B10: SEQ ID NO: 19 (peptide)
peptide: HXQGTFTSDLSKQKDEEAARLFIEWLXKGGPSSGAPPPS
modifications: D-Ser at 2; Lys 14 side chain K(γE-γE-x53) = (S)-4-Carboxy-4-((S)-4-carboxy-4-hexadecanoylamino-butyrylamino)-butyryl-; Aib at 27; C-terminal amide
B11: SEQ ID NO: 30 (peptide)
peptide: HXHGTFTSDLSKQKEEEAARLFIEWLKAGGPSSGAPPPS
modifications: D-Ser at 2; Lys 14 side chain K(γE-γE-x53) = (S)-4-Carboxy-4-((S)-4-carboxy-4-hexadecanoylamino-butyrylamino)-butyryl-; C-terminal amide
B12: SEQ ID NO: 15 (peptide)
peptide: HXQGTFTSDLSKQKDEEAARLFIEWLXSGGPSSGAPPPS
modifications: D-Ser at 2; Lys 14 side chain K(γE-γE-x53) = (S)-4-Carboxy-4-((S)-4-carboxy-4-hexadecanoylamino-butyrylamino)-butyryl-; Aib at 27; C-terminal amide
B13: SEQ ID NO: 8 (peptide)
peptide: H[dS]HGTFTSDLSKQK([γGlu-Stearoyl])DEEAARLFIEWL[Aib]AGGPSSGAPPPS-NH2
modifications: N-terminus assumed
SMILES: CCCCCCCCCCCCCCCCCC(=O)N[C@@H](CCC(=O)NCCCC[C@H](NC(=O)[C@H](CCC(N)=O)NC(=O)[C@H](CCCCN)NC(=O)[C@H](CO)NC(=O)[C@H](CC(C)C)NC(=O)[C@H](CC(=O)O)NC(=O)[C@H](CO)NC(=O)[C@@H](NC(=O)[C@H](Cc1ccccc1)NC(=O)[C@@H](NC(=O)CNC(=O)[C@H](Cc1c[nH]cn1)NC(=O)[C@@H](CO)NC(=O)[C@@H](N)Cc1c[nH]cn1)[C@@H](C)O)[C@@H](C)O)C(=O)N[C@@H](CC(=O)O)C(=O)N[C@@H](CCC(=O)O)C(=O)N[C@@H](CCC(=O)O)C(=O)N[C@@H](C)C(=O)N[C@@H](C)C(=O)N[C@@H](CCCNC(=N)N)C(=O)N[C@@H](CC(C)C)C(=O)N[C@@H](Cc1ccccc1)C(=O)N[C@H](C(=O)N[C@@H](CCC(=O)O)C(=O)N[C@@H](Cc1c[nH]c2ccccc12)C(=O)N[C@@H](CC(C)C)C(=O)NC(C)(C)C(=O)N[C@@H](C)C(=O)NCC(=O)NCC(=O)N1CCC[C@H]1C(=O)N[C@@H](CO)C(=O)N[C@@H](CO)C(=O)NCC(=O)N[C@@H](C)C(=O)N1CCC[C@H]1C(=O)N1CCC[C@H]1C(=O)N1CCC[C@H]1C(=O)N[C@@H](CO)C(N)=O)[C@@H](C)CC)C(=O)O
B14: SEQ ID NO: 17 (peptide)
peptide: H[dS]QGTFTSDLSKQK([γGlu-γGlu-Palmitoyl])DEEAVRLFIEWL[Aib]AGGPSSGAPPPS-NH2
modifications: N-terminus assumed
SMILES: CCCCCCCCCCCCCCCC(=O)N[C@@H](CCC(=O)N[C@@H](CCC(=O)NCCCC[C@H](NC(=O)[C@H](CCC(N)=O)NC(=O)[C@H](CCCCN)NC(=O)[C@H](CO)NC(=O)[C@H](CC(C)C)NC(=O)[C@H](CC(=O)O)NC(=O)[C@H](CO)NC(=O)[C@@H](NC(=O)[C@H](Cc1ccccc1)NC(=O)[C@@H](NC(=O)CNC(=O)[C@H](CCC(N)=O)NC(=O)[C@@H](CO)NC(=O)[C@@H](N)Cc1c[nH]cn1)[C@@H](C)O)[C@@H](C)O)C(=O)N[C@@H](CC(=O)O)C(=O)N[C@@H](CCC(=O)O)C(=O)N[C@@H](CCC(=O)O)C(=O)N[C@@H](C)C(=O)N[C@H](C(=O)N[C@@H](CCCNC(=N)N)C(=O)N[C@@H](CC(C)C)C(=O)N[C@@H](Cc1ccccc1)C(=O)N[C@H](C(=O)N[C@@H](CCC(=O)O)C(=O)N[C@@H](Cc1c[nH]c2ccccc12)C(=O)N[C@@H](CC(C)C)C(=O)NC(C)(C)C(=O)N[C@@H](C)C(=O)NCC(=O)NCC(=O)N1CCC[C@H]1C(=O)N[C@@H](CO)C(=O)N[C@@H](CO)C(=O)NCC(=O)N[C@@H](C)C(=O)N1CCC[C@H]1C(=O)N1CCC[C@H]1C(=O)N1CCC[C@H]1C(=O)N[C@@H](CO)C(N)=O)[C@@H](C)CC)C(C)C)C(=O)O)C(=O)O
B15: SEQ ID NO: 33 (peptide)
peptide: H-HSQGTFTSDLSKQK([γGlu-γGlu-Palmitoyl])DEEAARLFIEWLKAGGPSSGAPPPS-NH2
B16: SEQ ID NO: 10 (peptide)
peptide: H[dS]QGTFTSDLSKQK([γGlu-Stearoyl])EEEAVRLFIEWL[Aib]AGGPSSGAPPPS-NH2
modifications: N-terminus assumed
SMILES: CCCCCCCCCCCCCCCCCC(=O)N[C@@H](CCC(=O)NCCCC[C@H](NC(=O)[C@H](CCC(N)=O)NC(=O)[C@H](CCCCN)NC(=O)[C@H](CO)NC(=O)[C@H](CC(C)C)NC(=O)[C@H](CC(=O)O)NC(=O)[C@H](CO)NC(=O)[C@@H](NC(=O)[C@H](Cc1ccccc1)NC(=O)[C@@H](NC(=O)CNC(=O)[C@H](CCC(N)=O)NC(=O)[C@@H](CO)NC(=O)[C@@H](N)Cc1c[nH]cn1)[C@@H](C)O)[C@@H](C)O)C(=O)N[C@@H](CCC(=O)O)C(=O)N[C@@H](CCC(=O)O)C(=O)N[C@@H](CCC(=O)O)C(=O)N[C@@H](C)C(=O)N[C@H](C(=O)N[C@@H](CCCNC(=N)N)C(=O)N[C@@H](CC(C)C)C(=O)N[C@@H](Cc1ccccc1)C(=O)N[C@H](C(=O)N[C@@H](CCC(=O)O)C(=O)N[C@@H](Cc1c[nH]c2ccccc12)C(=O)N[C@@H](CC(C)C)C(=O)NC(C)(C)C(=O)N[C@@H](C)C(=O)NCC(=O)NCC(=O)N1CCC[C@H]1C(=O)N[C@@H](CO)C(=O)N[C@@H](CO)C(=O)NCC(=O)N[C@@H](C)C(=O)N1CCC[C@H]1C(=O)N1CCC[C@H]1C(=O)N1CCC[C@H]1C(=O)N[C@@H](CO)C(N)=O)[C@@H](C)CC)C(C)C)C(=O)O
B17: SEQ ID NO: 26 (peptide)
peptide: H[dS]HGTFTSDLSKQK([γGlu-γGlu-Palmitoyl])DEEAARLFIEWL[Aib]K[dA]GPSSGAPPPS-NH2

How the values were obtained:
Experiment in all cases: cell-based or functional assay
human GLP-1 receptor [1] = molecular target: T2, human GLP-1 receptor (human, UniProt P43220 24-463)
human GIP receptor [2] = molecular target: T1, human GIP receptor
human glucagon receptor [3] = molecular target: T3, human glucagon receptor (human, UniProt P47871 26-477)
human GLP-1 receptor [4] = molecular target: T2, human GLP-1 receptor; remark: listed apart in the source
human GIP receptor [5] = molecular target: T1, human GIP receptor; remark: listed apart in the source
human glucagon receptor [6] = molecular target: T3, human glucagon receptor; remark: listed apart in the source

T3 sequence (P47871 26-477): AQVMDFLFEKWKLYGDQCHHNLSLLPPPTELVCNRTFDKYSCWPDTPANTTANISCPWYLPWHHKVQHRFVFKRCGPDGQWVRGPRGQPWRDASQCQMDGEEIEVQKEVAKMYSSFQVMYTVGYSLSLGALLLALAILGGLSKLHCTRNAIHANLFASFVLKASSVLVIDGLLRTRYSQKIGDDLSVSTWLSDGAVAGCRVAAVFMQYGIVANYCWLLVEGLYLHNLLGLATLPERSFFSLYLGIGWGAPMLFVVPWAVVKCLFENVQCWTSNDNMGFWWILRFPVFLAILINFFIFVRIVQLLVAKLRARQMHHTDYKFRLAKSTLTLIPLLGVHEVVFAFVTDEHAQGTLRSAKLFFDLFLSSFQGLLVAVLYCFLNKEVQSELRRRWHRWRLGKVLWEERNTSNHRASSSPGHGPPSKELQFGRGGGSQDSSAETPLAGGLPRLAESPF

Binder | EC50 hGLP-1R (human GLP-1 receptor [1]) | EC50 hGIP-R (human GIP receptor [2]) | EC50 hGlucagon-R (human glucagon receptor [3]) | EC50 hGLP-1R (human GLP-1 receptor [4]) | EC50 hGIP-1 (human GIP receptor [5]) | EC50 hGlucagon-R (human glucagon receptor [6])
B1 | 0.0021 nM | 3.22 nM | 0.0554 nM |  |  | 
B2 | 0.0028 nM | 0.336 nM | 0.066 nM |  |  | 
B3 | 0.0021 nM | 8.32 nM | 0.0432 nM |  |  | 
B4 | 0.0018 nM | 4.16 nM | 0.0064 nM |  |  | 
B5 |  |  |  | 0.0009 nM | 0.112 nM | 0.0026 nM
B6 | 0.0024 nM | 14.1 nM | 0.0765 nM |  |  | 
B7 | 0.0043 nM | 20.2 nM | 0.0884 nM |  |  | 
B8 | 0.001 nM | 2.45 nM | 0.0091 nM |  |  | 
B9 | 0.0036 nM | 27.5 nM | 0.0103 nM |  |  | 
B10 | 0.002 nM |  |  |  |  | 
B11 |  |  |  | 0.0008 nM | 0.0778 nM | 0.0051 nM
B12 | 0.0018 nM | 5.5 nM | 0.0123 nM |  |  | 
B13 | 0.0018 nM | 0.538 nM | 0.0048 nM |  |  | 
B14 | 0.0024 nM | 7.08 nM | 0.0471 nM |  |  | 
B15 |  |  |  | 0.001 nM | 0.0708 nM | 0.0014 nM
B16 | 0.0065 nM | 0.982 nM | 0.14 nM |  |  | 
B17 | 0.002 nM | 5.53 nM | 0.0406 nM |  |  | 
